The text below walks through data of patent US20090275083A1.

Changes are numbered by the printed parent chain.

Assay [1] deals with T1, Fusarium oxysporum lipase (FoL) variant [change] (Fusarium oxysporum).
T1 chain: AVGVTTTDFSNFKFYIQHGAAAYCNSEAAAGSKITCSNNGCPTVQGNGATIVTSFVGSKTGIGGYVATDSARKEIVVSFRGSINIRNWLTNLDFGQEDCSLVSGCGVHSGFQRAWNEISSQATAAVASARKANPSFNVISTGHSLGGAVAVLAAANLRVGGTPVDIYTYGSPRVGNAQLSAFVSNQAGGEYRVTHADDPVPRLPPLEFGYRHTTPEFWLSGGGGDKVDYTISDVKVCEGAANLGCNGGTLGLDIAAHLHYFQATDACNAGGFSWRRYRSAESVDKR
Kind of assay: cell-based or functional assay.

Assay [2] has as its target T2, Fusarium oxysporum lipase (FoL), wild type (Fusarium oxysporum).
T2 chain: T1 chain with E207I
Put plainly: cell-based or functional assay.

With ATMTDAELEKKLNSYVQMDKEYVKNNQARS (modifications not checked) [Peptide P0 (wildtype FoL C-terminal peptide)], the figures for the IC50 (half maximal inhibitory concentration; p-NP butyrate hydrolysis) (peptide/lipase ratio) in assay [1] and in assay [2] were 287 and 913, respectively.
